{"source": "paper PMC10992996", "about": "“Human CRB1 and CRB2 form homo- and heteromeric protein complexes in the retina” (Life Science Alliance, 2024)", "target": "T1, CRB1-FLAG p.N1317H (human, UniProt P82279 26-1406, p.N1317H)", "T1 construct": "Crumbs homolog 1, canonical form, human, cDNA NM_202153 as printed, with a patient missense mutation; Made by site-directed mutagenesis of m1; also called CRB1 p.N1317H; p.C1317H; source: HEK293T, transfected, in lysate; not shown: Strep-Strep-FLAG, N-terminal, kept", "T1 sequence (looked up)": "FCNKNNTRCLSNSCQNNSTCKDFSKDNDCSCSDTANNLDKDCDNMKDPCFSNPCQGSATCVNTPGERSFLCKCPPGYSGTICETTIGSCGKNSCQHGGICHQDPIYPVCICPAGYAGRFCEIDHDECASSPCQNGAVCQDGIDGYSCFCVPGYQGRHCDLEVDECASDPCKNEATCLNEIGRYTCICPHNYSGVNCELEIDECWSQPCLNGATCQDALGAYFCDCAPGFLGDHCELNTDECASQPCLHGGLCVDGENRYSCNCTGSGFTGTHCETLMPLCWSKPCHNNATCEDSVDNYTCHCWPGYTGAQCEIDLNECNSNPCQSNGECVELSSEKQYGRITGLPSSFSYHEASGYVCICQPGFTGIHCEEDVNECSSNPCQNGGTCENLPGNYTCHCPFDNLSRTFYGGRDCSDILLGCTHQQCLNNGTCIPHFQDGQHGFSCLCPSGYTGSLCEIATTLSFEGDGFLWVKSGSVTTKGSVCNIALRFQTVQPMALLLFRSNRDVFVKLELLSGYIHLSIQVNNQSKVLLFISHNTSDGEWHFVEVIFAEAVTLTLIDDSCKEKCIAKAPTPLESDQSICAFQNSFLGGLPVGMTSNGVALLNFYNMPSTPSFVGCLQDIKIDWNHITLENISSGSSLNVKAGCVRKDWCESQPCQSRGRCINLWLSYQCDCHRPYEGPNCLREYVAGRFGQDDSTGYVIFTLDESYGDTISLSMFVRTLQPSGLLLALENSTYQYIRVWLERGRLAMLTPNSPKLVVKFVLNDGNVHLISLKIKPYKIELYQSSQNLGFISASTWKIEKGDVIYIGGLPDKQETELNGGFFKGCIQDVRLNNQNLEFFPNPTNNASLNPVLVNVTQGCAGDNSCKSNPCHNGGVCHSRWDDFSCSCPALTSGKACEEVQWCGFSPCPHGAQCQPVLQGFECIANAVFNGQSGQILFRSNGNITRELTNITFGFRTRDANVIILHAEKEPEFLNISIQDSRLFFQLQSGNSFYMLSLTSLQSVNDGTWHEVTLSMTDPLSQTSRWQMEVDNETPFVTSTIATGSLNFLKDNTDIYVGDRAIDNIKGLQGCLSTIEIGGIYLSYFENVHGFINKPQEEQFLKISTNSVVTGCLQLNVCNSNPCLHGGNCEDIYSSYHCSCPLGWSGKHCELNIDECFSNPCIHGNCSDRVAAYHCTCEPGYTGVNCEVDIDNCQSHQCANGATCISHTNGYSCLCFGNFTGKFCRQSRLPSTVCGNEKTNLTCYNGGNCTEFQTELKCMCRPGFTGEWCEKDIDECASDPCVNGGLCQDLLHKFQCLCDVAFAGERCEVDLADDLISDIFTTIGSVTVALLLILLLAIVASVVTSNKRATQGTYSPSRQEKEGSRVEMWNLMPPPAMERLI", "test": "co-IP; HEK293T cells co-transfected pairwise with a FLAG and an HA construct, 48 h; lysis in TBS (30 mM Tris-HCl pH 7.4, 150 mM NaCl) with 0.5% Nonidet P40; FLAG-IP on ANTI-FLAG M2 Affinity Gel 60-90 min at 4°C, elution with FLAG peptide; Western blot with HA and FLAG antibodies; for mutants HA/FLAG signal in eluates relative to WT, three biological replicates", "conditions": "partners not purified"}
{"binder": "Human canonical CRB2 (Crumbs homolog 2) (natural protein, Crumbs homolog 2, human, cDNA NM_173689; Stood as bait (FLAG copy) and as prey (HA copy) in the pairwise co-IP matrix; each copy carries only one of the two tags; The FLAG copy was the bait of the mass spectrometry pull-downs; also called CRB2-FLAG; CRB2-HA; source: HEK293T, transfected, in lysate (co-IP); HEK293T, transfected, FLAG-IP on beads, washed and purified with 0.01% SDS (retina …)) not shown", "values": [{"measurement": "percent reduction of the interaction relative to CRB1 WT", "result": 24, "unit": "%"}]}
